Source: PMC13046825, “A gated hydrophobic funnel within BAX binds bioactive lipids to potentiate pro-apoptotic function” (Nature Communications, 2024)
One block for each molecule: values may come before it.

Tests used:
[1] = target: 5-TAMRA labeled BAK-BH3 peptide; assay: FLAMBE (fluorescence polarisation); settings: BAKTAMRA 50 nM, read at 60 min, read off a plot
BAX [2] = target: T1, BAX (Homo sapiens, UniProt Q07812); assay: 1H-15N HSQC NMR chemical shift perturbation; MST; format: binding; design: 15N-labeled BAX WT
T1 sequence (Q07812 whole entry): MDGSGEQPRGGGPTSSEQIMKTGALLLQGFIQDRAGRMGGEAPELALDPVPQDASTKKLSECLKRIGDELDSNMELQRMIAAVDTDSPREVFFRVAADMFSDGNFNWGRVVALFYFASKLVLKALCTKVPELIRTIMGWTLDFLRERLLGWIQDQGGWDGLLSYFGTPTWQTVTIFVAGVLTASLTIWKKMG

BAX [3] = target: T1, BAX; assay: microscale thermophoresis; format: binding; design: recombinant human BAX WT
BAX^2S = target: T2, BAX^2S (Homo sapiens, UniProt Q07812, C62S/C126S); assay: thermal shift, FLAMBE and LUV permeabilization with purified BAX^2S (activation); format: biochemical
T2 construct: recombinant human BAX, cysteine-replacement mutant
T2 sequence (Q07812 whole entry C62S/C126S): as the sequence (Q07812 whole entry) above, with C62S, C126S counted along it

BAX [4] = target: T1, BAX; assay: microscale thermophoresis; also 1H-15N HSQC NMR, FLAMBE, LUV permeabilization; format: binding; design: recombinant human BAX, without a tag or exogenous residues (Alexa Fluor 647-labeled for MST)

Molecule: CCCCCC/C=C/C=O [2t9, 2t-nonenal]
1H-15N HSQC NMR chemical shift perturbation; MST (BAX [2]): nonenal and especially pentenal interacted with several accessible regions of BAX

Molecule: CCCCCCCC/C=C/C=O [2t11, 2t-undecenal]
microscale thermophoresis (BAX [3]): When subjected to MST, BAX^WT exhibited altered thermophoresis with each of the alkenals

Molecule: CCCCCCCCCCCCC/C=C/C=O [2t16, 2-trans-hexadecenal]
thermal shift, FLAMBE and LUV permeabilization with purified BAX^2S (activation) (BAX^2S): BAX^2S remained sensitive to hexadecenal-mediated changes in melting temperature, pore formation, and synergy with BIM‑BH3 peptide
EC50 (BAX [4]): 0.182 µM

Molecule: CCCCCCCCC/C=C/C=O [2t12, 2t-dodecenal]
microscale thermophoresis (BAX [3]): When subjected to MST, BAX^WT exhibited altered thermophoresis with each of the alkenals

Next, values leading:

response ([1]; BAXP168G 65 nM, 2t16 3 μM, no BIM-BH3): 240 mP
response ([1]; BAXP168G 65 nM, BIM-BH3 0.15 μM, 2t16 3 μM): 300 mP
response ([1]; BAXP168G 65 nM, BIM-BH3 0.15 μM, no 2t16): 310 mP
response ([1]; BAXP168G 65 nM, no BIM-BH3, no 2t16): 260 mP
Molecule: recombinant human BAX, wild type (from UniProt Q07812) P168G

response ([1]; BAXα8 225 nM, 2t16 4.5 μM, no BIM-BH3): 200 mP
response ([1]; BAXα8 225 nM, BIM-BH3 0.15 μM, 2t16 4.5 μM): 260 mP
response ([1]; BAXα8 225 nM, BIM-BH3 0.15 μM, no 2t16): 260 mP
response ([1]; BAXα8 225 nM, no BIM-BH3, no 2t16): 200 mP
Molecule: recombinant human BAX, wild type (from UniProt Q07812) L59C; C62S; C126S; L162C
